Results: patent publication US12269859B2, “Synthetic immune receptors and methods of use thereof” (Angeles Therapeutics, Inc., priority 2016, dated 2025)

Tested on: target antigen-expressing cell line
Test: Jurkat NFAT-GFP assay, coculture with target cell lines expressing the respective target antigen (summary Table 10A)
Type: cell-based, human
Parameters: key: The signs +/−, +, 2+ etc. after the name of the cell lines indicate the relative degree of positivity on the Jurkat-NFAT-GFP assay as measured by the % GFP positive cells; +: relative degree of positivity on the Jurkat-NFAT-GFP assay as measured by the % GFP positive cells; 2+: relative degree of positivity on the Jurkat-NFAT-GFP assay as measured by the % GFP positive cells
Settings: relative % GFP positive cells; for NFAT-GFP ASSAY Positive Cell lines: NALM6: SIR-expressing Jurkat-NFAT-GFP cells cocultured with NALM6; for NFAT-GFP ASSAY Positive Cell lines: RAJI: SIR-expressing Jurkat-NFAT-GFP cells cocultured with RAJI
Procedure, shortened: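 Jurkat cells carrying an NFAT-site IL-2 promoter driving GFP were lentivirally transduced with SIRs, puromycin-selected, then cocultured with antigen-expressing target cells at E:T about 1:2 for about 4–18 hours. GFP induction was read by flow cytometry as % GFP-positive cells versus parental Jurkat-NFAT-GFP.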

Molecule | NFAT-GFP ASSAY Positive Cell lines: NALM6 | NFAT-GFP ASSAY Positive Cell lines: RAJI | NFAT-GFP ASSAY Positive Cell lines: L363 (SIR-expressing Jurkat-NFAT-GFP cells cocultured with L363) | NFAT-GFP ASSAY Positive Cell lines: U266 (SIR-expressing Jurkat-NFAT-GFP cells cocultured with U266)
010417-C03 (protein) MALPVTALLLPLALLLHAARPLEGKPIPNPLLGLDSTGSGEDLKNVFPPEVAVFEPSKAEIAHTQKATLVCLATGFYPDHVELSWWVNGKEVHSGVCTDPQPLKEQPALNDSRYCLSSRLRVSATFWQNPRNHFRCQVQFYGLSENDEWTQDRAKPVTQIVSAEAWGRADCGITSASYHQGVLSATILYEILLGKATLYAVLVSALVLMAMVKRKDSRGRAKRSGSGATNFSLLKQAGDVEENPGPTSTMALPVTALLLPLALLLHAARPDEIVLTQSPATLSLSPGERATLSCSASSSVSYMHWYQQKPGQAPRLLIYDTSKLASGIPARFSGSGSGTDFTLTISSLEPEDVAVYYCFQGSVYPFTFGQGTKLEIKRGGGGSGGGGSGGGGSQVQLQESGPGLVKPSQTLSLTCTVSGGSISTSGMGVGWIRQHPGKGLEWIGHIWWDDDKRYNPALKSRVTISVDTSKNQFSLKLSSVTAADTAVYYCARMELWSYYFDYWGQGTLVTVSSTREAAAKDIQMTQSPSSLSASVGDRVTITCKASQDVGIAVAWYQQKPGKVPKLLIYWASTRHTGVPDRFSGSGSGTDFTLTISSLQPEDVATYYCQQYSSYPYTFGQGTKVEIKGGGGSGGGGSGGGGSEVQLVESGGGLVQPGGSLRLSCAASGFDFSRYWMSWVRQAPGKGLEWIGEINPDSSTINYAPSLKDKFIISRDNAKNSLYLQMNSLRAEDTAVYYCARPDGNYWYFDVWGQGTLVTVSSTREQKLISEEDGSGIQNPDPAVYQLRDSKSSDKSVCLFTDFDSQTNVSQSKDSDVYITDKCVLDMRSMDFKSNSAVAWSNKSDFACANAFNNSIIPEDTFFPSSDVPCDVKLVEKSFETDTNLNFQNLSVIGFRILLLKVAGFNLLMTLRLWSSRAKRSGSGVKQTLNFDLLKLAGDVESNPGPSRGHMTEYKPTVRLATRDDVPRAVRTLAAAFADYPATRHTVDPDRHIERVTELQELFLTRVGLDIGKVWVADDGAAVAVWTTPESVEAGAVFAEIGPRMAELSGSRLAAQQQMEGLLAPHRPKEPAWFLATVGVSPDHQGKGLGSAVVLPGVEAAERAGVPAFLETSAPRNLPFYERLGFTVTADVEVPEGPRTWCMTRKPGA | (+/−) | RAJI (+), NALM6 |  | 
010417-L03 (protein) MALPVTALLLPLALLLHAARPLEQKLISEEDLGSGDRPDPAVYQLRDSKSSDKSVCLFTDFDSQTNVSQSKDSDVYITDKCVLDMRSMDFKSNSAVAWSNKSDFACANAFNNSIIPEDTFFPSPESSCDVKLVEKSFETDTNLNFQNLSVIGFRILLLKVAGFNLLMTLRLWSSSSRAKRSGSGVKQTLNFDLLKLAGDVESNPGPTSMALPVTALLLPLALLLHAARPEIVLTQSPDFQSVTPKEKVTITCRASESVDTFGISFMNWFQQKPDQSPKLLIHAASNQGSGVPSRFSGSGSGTDFTLTINSLEAEDAATYYCQQSKEVPFTFGGGTKVEIKGGGGSGGGGSGGGGSEVQLVESGGGLVQPGGSLRLSCAASGFTFSSSWMNWVRQAPGKGLEWVGRIYPGDGDTNYNGKFKGRFTISRDDSKNSLYLQMNSLKTEDTAVYYCARSGFITTVLDFDYWGQGTLVTVSSTRGKPIPNPLLGLDSTGSGEDLKNVFPPEVAVFEPSEAEISHTQKATLVCLATGFYPDHVELSWWVNGKEVHSGVCTDPQPLKEQPALNDSRYCLSSRLRVSATFWQNPRNHFRCQVQFYGLSENDEWTQDRAKPVTQIVSAEAWGRADCGFTSESYQQGVLSATILYEILLGKATLYAVLVSALVLMAMVKRKDSRGRAKRSGSGATNFSLLKQAGDVEENPGPSRGHMTEYKPTVRLATRDDVPRAVRTLAAAFADYPATRHTVDPDRHIERVTELQELFLTRVGLDIGKVWVADDGAAVAVWTTPESVEAGAVFAEIGPRMAELSGSRLAAQQQMEGLLAPHRPKEPAWFLATVGVSPDHQGKGLGSAVVLPGVEAAERAGVPAFLETSAPRNLPFYERLGFTVTADVEVPEGPRTWCMTRKPGA | RAJI (+), NALM6 (+) | RAJI (+), NALM6 (+) |  | 
010417-H05 (protein) MALPVTALLLPLALLLHAARPLEGKPIPNPLLGLDSTGSGEDLKNVFPPEVAVFEPSKAEIAHTQKATLVCLATGFYPDHVELSWWVNGKEVHSGVCTDPQPLKEQPALNDSRYCLSSRLRVSATFWQNPRNHFRCQVQFYGLSENDEWTQDRAKPVTQIVSAEAWGRADCGITSASYHQGVLSATILYEILLGKATLYAVLVSALVLMAMVKRKDSRGRAKRSGSGATNFSLLKQAGDVEENPGPTSMALPVTALLLPLALLLHAARPEIVLTQSPDFQSVTPKEKVTITCRASESVDTFGISFMNWFQQKPDQSPKLLIHAASNQGSGVPSRFSGSGSGTDFTLTINSLEAEDAATYYCQQSKEVPFTFGGGTKVEIKGGGGSGGGGSGGGGSEVQLVESGGGLVQPGGSLRLSCAASGFTFSSSWMNWVRQAPGKGLEWVGRIYPGDGDTNYNGKFKGRFTISRDDSKNSLYLQMNSLKTEDTAVYYCARSGFITTVLDFDYWGQGTLVTVSSTREQKLISEEDGSGIQNPDPAVYQLRDSKSSDKSVCLFTDFDSQTNVSQSKDSDVYITDKCVLDMRSMDFKSNSAVAWSNKSDFACANAFNNSIIPEDTFFPSSDVPCDVKLVEKSFETDTNLNFQNLSVIGFRILLLKVAGFNLLMTLRLWSSRAKRSGSGVKQTLNFDLLKLAGDVESNPGPSRGHMTEYKPTVRLATRDDVPRAVRTLAAAFADYPATRHTVDPDRHIERVTELQELFLTRVGLDIGKVWVADDGAAVAVWTTPESVEAGAVFAEIGPRMAELSGSRLAAQQQMEGLLAPHRPKEPAWFLATVGVSPDHQGKGLGSAVVLPGVEAAERAGVPAFLETSAPRNLPFYERLGFTVTADVEVPEGPRTWCMTRKPGA | (+) | RAJI (2+), NALM6 |  | 
030217-A05 (protein) MALPVTALLLPLALLLHAARPDEIVLTQSPATLSLSPGERATLSCSASSSVSYMHWYQQKPGQAPRLLIYDTSKLASGIPARFSGSGSGTDFTLTISSLEPEDVAVYYCFQGSVYPFTFGQGTKLEIKRGGGGSGGGGSGGGGSQVQLQESGPGLVKPSQTLSLTCTVSGGSISTSGMGVGWIRQHPGKGLEWIGHIWWDDDKRYNPALKSRVTISVDTSKNQFSLKLSSVTAADTAVYYCARMELWSYYFDYWGQGTLVTVSSLEGKPIPNPLLGLDSTGSGEDLKNVFPPEVAVFEPSKAEIAHTQKATLVCLATGFYPDHVELSWWVNGKEVHSGVCTDPQPLKEQPALNDSRYCLSSRLRVSATFWQNPRNHFRCQVQFYGLSENDEWTQDRAKPVTQIVSAEAWGRADCGITSASYHQGVLSATILYEILLGKATLYAVLVSALVLMAMVKRKDSRGRAKRSGSGATNFSLLKQAGDVEENPGPTSTMALPVTALLLPLALLLHAARPDIQMTQSPSSLSASVGDRVTITCKASQDVGIAVAWYQQKPGKVPKLLIYWASTRHTGVPDRFSGSGSGTDFTLTISSLQPEDVATYYCQQYSSYPYTFGQGTKVEIKGGGGSGGGGSGGGGSEVQLVESGGGLVQPGGSLRLSCAASGFDFSRYWMSWVRQAPGKGLEWIGEINPDSSTINYAPSLKDKFIISRDNAKNSLYLQMNSLRAEDTAVYYCARPDGNYWYFDVWGQGTLVTVSSTREQKLISEEDGSGIQNPDPAVYQLRDSKSSDKSVCLFTDFDSQTNVSQSKDSDVYITDKCVLDMRSMDFKSNSAVAWSNKSDFACANAFNNSIIPEDTFFPSSDVPCDVKLVEKSFETDTNLNFQNLSVIGFRILLLKVAGFNLLMTLRLWSSRAKRSGSGVKQTLNFDLLKLAGDVESNPGPSRGHMTEYKPTVRLATRDDVPRAVRTLAAAFADYPATRHTVDPDRHIERVTELQELFLTRVGLDIGKVWVADDGAAVAVWTTPESVEAGAVFAEIGPRMAELSGSRLAAQQQMEGLLAPHRPKEPAWFLATVGVSPDHQGKGLGSAVVLPGVEAAERAGVPAFLETSAPRNLPFYERLGFTVTADVEVPEGPRTWCMTRKPGA | (+/−), L363 (+/−), | RAJI (+), NALM6 | (+/−), L363 (+/−), | U266 (+/−)
